Measured values from the supplement of paper PMC9112550, “Optimization of the antimicrobial peptide Bac7 by deep mutational scanning” (BMC Biology, 2022).

Tested on: Escherichia coli TOP10
Test: shrunken log2 fold change of peptide-encoding DNA abundance (4.5 h post-induction vs induction); higher = less antimicrobial activity (less host growth inhibition)
Settings: time post-induction: 4.5 h; library: site-saturation at positions 5, 18, 19, 20
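Note: peptides expressed intracellularly from a pBAD plasmid library in pooled LB shake-flask culture, induced with 0.3% L-arabinose, DNA abundance read by NGS, three biological replicates, DESeq2 with apeglm shrinkage.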

Row | Sequence | shrunken log2 fold change
1 | RRIRDRPPRLPRPRPRPYFTPRP | -0.573
2 | RRIRDRPPRLPRPRPRPYGHPRP | -0.012
3 | RRIRDRPPRLPRPRPRPYGKPRP | -0.511
4 | RRIRDRPPRLPRPRPRPYGYPRP | -0.575
5 | RRIRDRPPRLPRPRPRPYHQPRP | -0.0205
6 | RRIRDRPPRLPRPRPRPYIPPRP | -0.456
7 | RRIRDRPPRLPRPRPRPYKDPRP | -0.221
8 | RRIRDRPPRLPRPRPRPYLWPRP | -0.0398
9 | RRIRDRPPRLPRPRPRPYMVPRP | 0.0212
10 | RRIRDRPPRLPRPRPRPYMWPRP | 0.0589
11 | RRIRDRPPRLPRPRPRPYNPPRP | -0.309
12 | RRIRDRPPRLPRPRPRPYPMPRP | -0.348
13 | RRIRDRPPRLPRPRPRPYPVPRP | 0.00705
14 | RRIRDRPPRLPRPRPRPYQAPRP | -0.0283
15 | RRIRDRPPRLPRPRPRPYSEPRP | -0.0337
16 | RRIRDRPPRLPRPRPRPYTFPRP | -0.0443
17 | RRIRDRPPRLPRPRPRPYTQPRP | -0.165
18 | RRIRERPPRLPRPRPRPAAAPRP | 0.436
19 | RRIRERPPRLPRPRPRPAAYPRP | -0.0475
20 | RRIRERPPRLPRPRPRPADIPRP | 0.033
21 | RRIRERPPRLPRPRPRPAELPRP | -0.187
22 | RRIRERPPRLPRPRPRPAHPPRP | -0.0581
23 | RRIRERPPRLPRPRPRPAHRPRP | 0.0394
24 | RRIRERPPRLPRPRPRPAHSPRP | -0.159
25 | RRIRERPPRLPRPRPRPAIAPRP | 0.0488

Row | Sequence | shrunken log2 fold change
26 | RRIRERPPRLPRPRPRPAKPPRP | -0.248
27 | RRIRERPPRLPRPRPRPAMNPRP | -0.28
28 | RRIRERPPRLPRPRPRPAPEPRP | 0.236
29 | RRIRERPPRLPRPRPRPAQDPRP | 0.00521
30 | RRIRERPPRLPRPRPRPAQSPRP | 0.0517
31 | RRIRERPPRLPRPRPRPAQVPRP | -0.149
32 | RRIRERPPRLPRPRPRPARCPRP | 0.114
33 | RRIRERPPRLPRPRPRPARRPRP | 0.539
34 | RRIRERPPRLPRPRPRPATYPRP | -0.275
35 | RRIRERPPRLPRPRPRPAWHPRP | 0.324
36 | RRIRERPPRLPRPRPRPAYQPRP | 0.0953
37 | RRIRERPPRLPRPRPRPCEIPRP | -0.318
38 | RRIRERPPRLPRPRPRPCFFPRP | -0.331
39 | RRIRERPPRLPRPRPRPCGAPRP | 0.469
40 | RRIRERPPRLPRPRPRPCKVPRP | -0.00382
41 | RRIRERPPRLPRPRPRPCLDPRP | -0.0689
42 | RRIRERPPRLPRPRPRPCMCPRP | -1.03
43 | RRIRERPPRLPRPRPRPCMLPRP | -0.241
44 | RRIRERPPRLPRPRPRPCMQPRP | -0.133
45 | RRIRERPPRLPRPRPRPCPQPRP | -0.232
46 | RRIRERPPRLPRPRPRPCSWPRP | -0.0335
47 | RRIRERPPRLPRPRPRPCTCPRP | -0.00884
48 | RRIRERPPRLPRPRPRPCTVPRP | -0.0354
49 | RRIRERPPRLPRPRPRPCVEPRP | -0.11
50 | RRIRERPPRLPRPRPRPCWHPRP | -0.523

Row | Sequence | shrunken log2 fold change
51 | RRIRERPPRLPRPRPRPCYAPRP | -0.383
52 | RRIRERPPRLPRPRPRPCYDPRP | -1.93
53 | RRIRERPPRLPRPRPRPCYKPRP | -0.901
54 | RRIRERPPRLPRPRPRPDDRPRP | -0.135
55 | RRIRERPPRLPRPRPRPDFTPRP | -0.233
56 | RRIRERPPRLPRPRPRPDIDPRP | -0.191
57 | RRIRERPPRLPRPRPRPDIGPRP | -0.0541
58 | RRIRERPPRLPRPRPRPDKMPRP | -0.0703
59 | RRIRERPPRLPRPRPRPDLKPRP | -0.108
60 | RRIRERPPRLPRPRPRPDNDPRP | -0.259
61 | RRIRERPPRLPRPRPRPDNEPRP | -0.0338
62 | RRIRERPPRLPRPRPRPDNMPRP | -0.2
63 | RRIRERPPRLPRPRPRPDNQPRP | -0.459
64 | RRIRERPPRLPRPRPRPDQAPRP | -0.00195
65 | RRIRERPPRLPRPRPRPDQDPRP | -0.00875
66 | RRIRERPPRLPRPRPRPDRPPRP | -0.165
67 | RRIRERPPRLPRPRPRPDRYPRP | -0.00433
68 | RRIRERPPRLPRPRPRPDTHPRP | -0.532
69 | RRIRERPPRLPRPRPRPDWDPRP | -0.248
70 | RRIRERPPRLPRPRPRPDYGPRP | -0.015
71 | RRIRERPPRLPRPRPRPDYKPRP | -0.31
72 | RRIRERPPRLPRPRPRPEADPRP | 0.0032
73 | RRIRERPPRLPRPRPRPECAPRP | 0.586
74 | RRIRERPPRLPRPRPRPEDQPRP | -0.0394
75 | RRIRERPPRLPRPRPRPEDYPRP | 0.00235

Row | Sequence | shrunken log2 fold change
76 | RRIRERPPRLPRPRPRPEEAPRP | 0.353
77 | RRIRERPPRLPRPRPRPEEFPRP | -0.0217
78 | RRIRERPPRLPRPRPRPEFQPRP | -0.0353
79 | RRIRERPPRLPRPRPRPEHKPRP | -0.0265
80 | RRIRERPPRLPRPRPRPEIKPRP | -0.0374
81 | RRIRERPPRLPRPRPRPEITPRP | -0.045
82 | RRIRERPPRLPRPRPRPEKFPRP | -0.287
83 | RRIRERPPRLPRPRPRPELCPRP | 0.511
84 | RRIRERPPRLPRPRPRPELEPRP | 0.276
85 | RRIRERPPRLPRPRPRPELIPRP | 0.0254
86 | RRIRERPPRLPRPRPRPELVPRP | 0.0791
87 | RRIRERPPRLPRPRPRPEMNPRP | 0.0387
88 | RRIRERPPRLPRPRPRPENVPRP | -0.0141
89 | RRIRERPPRLPRPRPRPEQHPRP | -0.0123
90 | RRIRERPPRLPRPRPRPERIPRP | -0.0271
91 | RRIRERPPRLPRPRPRPESFPRP | 0.0447
92 | RRIRERPPRLPRPRPRPESKPRP | -0.145
93 | RRIRERPPRLPRPRPRPESWPRP | 0.343
94 | RRIRERPPRLPRPRPRPEYLPRP | -1.13
95 | RRIRERPPRLPRPRPRPEYMPRP | -0.0257
96 | RRIRERPPRLPRPRPRPEYRPRP | -0.00146
97 | RRIRERPPRLPRPRPRPFAWPRP | 0.143
98 | RRIRERPPRLPRPRPRPFCMPRP | -0.126
99 | RRIRERPPRLPRPRPRPFDGPRP | 0.000346
100 | RRIRERPPRLPRPRPRPFDHPRP | 0.0195

Row | Sequence | shrunken log2 fold change
101 | RRIRERPPRLPRPRPRPFDQPRP | -0.0377
102 | RRIRERPPRLPRPRPRPFIKPRP | -0.16
103 | RRIRERPPRLPRPRPRPFIMPRP | -0.0895
104 | RRIRERPPRLPRPRPRPFIRPRP | -0.854
105 | RRIRERPPRLPRPRPRPFPFPRP | -0.629
106 | RRIRERPPRLPRPRPRPFPHPRP | -0.15
107 | RRIRERPPRLPRPRPRPFPSPRP | -0.0393
108 | RRIRERPPRLPRPRPRPFQVPRP | -0.212
109 | RRIRERPPRLPRPRPRPFSAPRP | -0.161
110 | RRIRERPPRLPRPRPRPFSRPRP | -0.0038
111 | RRIRERPPRLPRPRPRPFTMPRP | -0.585
112 | RRIRERPPRLPRPRPRPFVEPRP | 0.0315
113 | RRIRERPPRLPRPRPRPFVQPRP | -0.386
114 | RRIRERPPRLPRPRPRPFVWPRP | -0.0465
115 | RRIRERPPRLPRPRPRPFWNPRP | -0.51
116 | RRIRERPPRLPRPRPRPFYSPRP | -0.795
117 | RRIRERPPRLPRPRPRPGCEPRP | -0.00695
118 | RRIRERPPRLPRPRPRPGDMPRP | -0.116
119 | RRIRERPPRLPRPRPRPGEFPRP | 0.033
120 | RRIRERPPRLPRPRPRPGEKPRP | -0.00142
121 | RRIRERPPRLPRPRPRPGEYPRP | -0.267
122 | RRIRERPPRLPRPRPRPGFSPRP | -0.196
123 | RRIRERPPRLPRPRPRPGFWPRP | 0.407
124 | RRIRERPPRLPRPRPRPGGGPRP | 0.855
125 | RRIRERPPRLPRPRPRPGGRPRP | 0.27

Row | Sequence | shrunken log2 fold change
126 | RRIRERPPRLPRPRPRPGKDPRP | -0.24
127 | RRIRERPPRLPRPRPRPGKEPRP | 0.0125
128 | RRIRERPPRLPRPRPRPGKIPRP | 0.139
129 | RRIRERPPRLPRPRPRPGMWPRP | 0.178
130 | RRIRERPPRLPRPRPRPGNMPRP | -0.0808
131 | RRIRERPPRLPRPRPRPGQEPRP | 0.0214
132 | RRIRERPPRLPRPRPRPGRGPRP | 0.436
133 | RRIRERPPRLPRPRPRPGTGPRP | 0.229
134 | RRIRERPPRLPRPRPRPGTMPRP | 0.0721
135 | RRIRERPPRLPRPRPRPGWQPRP | 0.0683
136 | RRIRERPPRLPRPRPRPGYDPRP | -0.191
137 | RRIRERPPRLPRPRPRPHAAPRP | -0.0217
138 | RRIRERPPRLPRPRPRPHAEPRP | -0.0335
139 | RRIRERPPRLPRPRPRPHENPRP | -0.365
140 | RRIRERPPRLPRPRPRPHFGPRP | -0.0492
141 | RRIRERPPRLPRPRPRPHFNPRP | -0.744
142 | RRIRERPPRLPRPRPRPHGMPRP | 0.0601
143 | RRIRERPPRLPRPRPRPHGRPRP | 0.0279
144 | RRIRERPPRLPRPRPRPHHMPRP | -0.381
145 | RRIRERPPRLPRPRPRPHKMPRP | -0.701
146 | RRIRERPPRLPRPRPRPHLEPRP | -0.0328
147 | RRIRERPPRLPRPRPRPHLSPRP | -0.19
148 | RRIRERPPRLPRPRPRPHMIPRP | 0.0284
149 | RRIRERPPRLPRPRPRPHMRPRP | 0.0528
150 | RRIRERPPRLPRPRPRPHNKPRP | -0.787
